Test results reported in patent US20220064329A1 (Novo Nordisk, published 2022).
Substitutions are numbered along the chain they refer to.

Tests used:
FVII(a) WT = molecular target: T1, FVII(a) WT (human, UniProt P08709 61-466); experiment: SPR, Biacore T200, 25 C; FVII(a) captured on anti-Gla Ab 4F6, mAb0842(OA) injected
T1 construct: also called wild type human FVII(a)
T1 sequence: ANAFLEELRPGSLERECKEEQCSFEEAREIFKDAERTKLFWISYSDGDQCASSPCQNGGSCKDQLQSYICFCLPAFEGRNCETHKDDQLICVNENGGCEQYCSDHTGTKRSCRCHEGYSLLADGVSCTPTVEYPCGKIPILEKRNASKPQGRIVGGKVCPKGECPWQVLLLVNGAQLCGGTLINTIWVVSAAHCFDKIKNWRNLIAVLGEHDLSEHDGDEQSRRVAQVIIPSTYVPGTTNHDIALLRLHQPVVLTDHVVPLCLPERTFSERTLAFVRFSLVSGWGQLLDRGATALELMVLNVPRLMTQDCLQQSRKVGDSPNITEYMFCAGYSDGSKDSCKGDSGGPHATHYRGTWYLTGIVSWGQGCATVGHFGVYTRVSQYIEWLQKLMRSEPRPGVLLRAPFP
Experimental: (§1) The running buffer was prepared by diluting 10-fold the 10×HBS-P buffer (supplied by GE Healthcare) and supplemented with 1 mg/ml BSA and 5 mM CaCl2 to give 10 mM HEPES, 150 mM NaCl, 0.05% v/v Polysorbate 20, pH 7.4, 5 mM CaCl2, 1 mg/ml bovine serum albumin (BSA). […] Regeneration of the chip was achieved using 10 mM HEPES, 150 mM NaCl, 20 mM EDTA, 0.05 v/v Polysorbate 20, pH 7.4. Binding data were analysed according to a 1:1 Kinetic model and steady state analysis using BiaEvaluation 4.1 supplied by the manufacturer (Biacore AB, Uppsala, Sweden). Wherever possible, ka, kd and KD values from 1:1 kinetic fitting model are reported. […] An amino acid residue is considered a hot-spot residue if substitution of that amino acid residue with alanine results in an affinity reduction of ten (10) fold or more relative to the wild type.

FVII(a) variant P251A = molecular target: T2, FVII(a) variant P251A (human, UniProt P08709 61-466); experiment: SPR, ratio of KD to KD of WT
T2 construct: hFVII alanine variant in cell culture supernatant
T2 sequence: T1 sequence with P251A
Experimental: as §1

FVII(a) variant S119A = molecular target: T3, FVII(a) variant S119A (human, UniProt P08709 61-466); experiment: SPR, ratio of KD to KD of WT
T3 construct: hFVII alanine variant in cell culture supernatant
T3 sequence: T1 sequence with S119A
Experimental: as §1

FVII(a) variant M391A = molecular target: T4, FVII(a) variant M391A (human, UniProt P08709 61-466); experiment: SPR, ratio of KD to KD of WT
T4 construct: hFVII alanine variant in cell culture supernatant
T4 sequence: T1 sequence with M391A
Experimental: as §1

FVII(a) variant G117A = molecular target: T5, FVII(a) variant G117A (human, UniProt P08709 61-466); experiment: SPR, ratio of KD to KD of WT
T5 construct: hFVII alanine variant in cell culture supernatant
T5 sequence: T1 sequence with G117A
Experimental: as §1

B1: mAb0842(OA) (antibody, human IgG4 S228P, kappa)
heavy: QVQLQESGPGLVKPSQTLSLTCTVSGYSISSDSAWSWIRQPPGKGLEWIGYIQYSGSTNYNPSLKSRVTISRDTSKNQFSLKLSSVTAADTAVYYCARSVNYYGNSFAVGYWGQGTLVTVSSASTKGPSVFPLAPCSRSTSESTAALGCLVKDYFPEPVTVSWNSGALTSGVHTFPAVLQSSGLYSLSSVVTVPSSSLGTKTYTCNVDHKPSNTKVDKRVESKYGPPCPPCPAPEFLGGPSVFLFPPKPKDTLMISRTPEVTCVVVDVSQEDPEVQFNWYVDGVEVHNAKTKPREEQFNSTYRVVSVLTVLHQDWLNGKEYKCKVSNKGLPSSIEKTISKAKGQPREPQVYTLPPSQEEMTKNQVSLSCAVKGFYPSDIAVEWESNGQPENNYKTTPPVLDSDGSFFLVSRLTVDKSRWQEGNVFSCSVMHEALHNHYTQKSLSLSLGK
light: EIVLTQSPATLSLSPGERATLSCRASQGISDYLHWYQQKPGEAPRLLIKYTSQPATGIPARFSGSGSGTDFTLTISSLEPEDFAVYYCQNGHSFPLTFGQGTKLEIKRTVAAPSVFIFPPSDEQLKSGTASVVCLLNNFYPREAKVQWKVDNALQSGNSQESVTEQDSKDSTYSLSSTLTLSKADYEKHKVYACEVTHQGLSSPVTKSFNRGEC
chain: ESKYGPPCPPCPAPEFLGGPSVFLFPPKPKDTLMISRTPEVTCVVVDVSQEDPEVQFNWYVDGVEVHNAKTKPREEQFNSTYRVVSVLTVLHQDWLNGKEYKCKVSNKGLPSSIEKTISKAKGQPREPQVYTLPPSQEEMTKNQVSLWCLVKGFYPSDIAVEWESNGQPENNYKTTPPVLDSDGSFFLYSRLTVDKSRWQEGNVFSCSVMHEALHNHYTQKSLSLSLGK
notes: also called monovalent humanized 11F2 antibody; one-armed anti-FVII(a) antibody
How did the Kd (FVII(a) WT) turn out when B1 was run?
The Kd was 310 pM.

And the “Fold diff (Variant/WT)” value (FVII(a) variant P251A)?
The value was 2.8 fold.

What about the “Fold diff (Variant/WT)” value (FVII(a) variant S119A) of the same binder?
The value was 1 fold.

What about the “Fold diff (Variant/WT)” value (FVII(a) variant M391A) of the same binder?
Its value is 0.8 fold.

And the “Fold diff (Variant/WT)” value (FVII(a) variant G117A)?
Its value is 1 fold.
